Test results published in patent publication US20040071710A1.

Columns and labels:
[1] = biological target: E2 BEVS, recombinant HCV genotype 1b E2 protein produced in insect cells using Baculovirus (hepatitis C virus genotype 1b); assay: ELISA, E2-BEVS coated at 2 µg/ml, antibody at 0.0156 µg/ml
[2] = biological target: E2 BEVS, recombinant HCV genotype 1b E2 protein produced in insect cells using Baculovirus (hepatitis C virus genotype 1b); assay: ELISA, E2-BEVS coated at 2 µg/ml, antibody at 0.5 µg/ml
[3] = biological target: E2 BEVS, recombinant HCV genotype 1b E2 protein produced in insect cells using Baculovirus (hepatitis C virus genotype 1b); assay: ELISA, E2-BEVS coated at 2 µg/ml, antibody at 0.0625 µg/ml
[4] = biological target: E2 BEVS, recombinant HCV genotype 1b E2 protein produced in insect cells using Baculovirus (hepatitis C virus genotype 1b); assay: ELISA, E2-BEVS coated at 2 µg/ml, antibody at 0.125 µg/ml
[5] = biological target: HCV particles from sera of HCV infected patients (hepatitis C virus genotype 1b and 1a/1b); assay: immuno magnetic separation of virus from patient serum, RT-PCR detection
[6] = biological target: E2 CHO, recombinant HCV genotype 1b E2 protein produced in mammalian CHO cells (hepatitis C virus genotype 1b); assay: BIAcore 2000 (SPR)
E2 CHO, recombinant HCV genotype 1b E2 protein produced in mammalian CHO cells (hepatitis C virus genotype 1b), sequence (P26664 384-714): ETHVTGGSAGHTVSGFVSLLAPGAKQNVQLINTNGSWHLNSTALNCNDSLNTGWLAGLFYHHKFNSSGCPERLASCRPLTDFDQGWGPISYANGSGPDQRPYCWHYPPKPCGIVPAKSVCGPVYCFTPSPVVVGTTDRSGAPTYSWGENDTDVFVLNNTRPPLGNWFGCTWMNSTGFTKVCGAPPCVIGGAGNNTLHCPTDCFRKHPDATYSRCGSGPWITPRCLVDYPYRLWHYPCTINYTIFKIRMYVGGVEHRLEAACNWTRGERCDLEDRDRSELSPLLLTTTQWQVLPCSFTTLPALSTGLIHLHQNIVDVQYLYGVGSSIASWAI

[7] = biological target: E2 BEVS, recombinant HCV genotype 1b E2 protein produced in insect cells using Baculovirus (hepatitis C virus genotype 1b); assay: BIAcore 2000 (SPR)
[8] = biological target: E2 BEVS, recombinant HCV genotype 1b E2 protein produced in insect cells using Baculovirus (hepatitis C virus genotype 1b); assay: ELISA, E2-BEVS coated at 2 µg/ml, antibody at 0.25 µg/ml
[9] = biological target: E2 BEVS, recombinant HCV genotype 1b E2 protein produced in insect cells using Baculovirus (hepatitis C virus genotype 1b); assay: ELISA, E2-BEVS coated at 2 µg/ml, antibody at 1 µg/ml
[10] = biological target: E2 BEVS, recombinant HCV genotype 1b E2 protein produced in insect cells using Baculovirus (hepatitis C virus genotype 1b); assay: ELISA, E2-BEVS coated at 2 µg/ml, antibody at 0.0078 µg/ml
[11] = biological target: E2 BEVS, recombinant HCV genotype 1b E2 protein produced in insect cells using Baculovirus (hepatitis C virus genotype 1b); assay: ELISA, E2-BEVS coated at 2 µg/ml, antibody at 0.03125 µg/ml

B1: HCV-AB 68 (antibody, V domains shown)
VH: QVQLVESGGGVVQPGRSLRLSCATSGFPFSSYGMHWVRQAPGKGLEWVAVISYDGSNEHSIDSVKGRFTISRDNSKNRLYLQMKSLRAEDMAVYFCVRGAHRSSWSGKRFDYWGQGTLVTVSS
VL: DIQMTQSPSTLSASIGDRVTITCRASLNILTWLAWYQQKPGKAPKLLIYEASSLESGVPSRFSGSGSGTQFTLTISSLQPDDFATYYCQQSNTPWTFGQGTKVEIKR
Binder B1 has an OD450 nm [1] of 0.12 OD450 nm, an OD450 nm [2] of 0.362 OD450 nm and an OD450 nm [3] of 0.204 OD450 nm. The OD450 nm [4] was 0.267 OD450 nm, the percentage of bound virus [5] was 50% and the Kd [6] was 0.014 nM. It also gave a Kd [7] of 1.7 nM, an OD450 nm [8] of 0.305 OD450 nm and an OD450 nm [9] of 0.439 OD450 nm. For the same binder, the OD450 nm [10] was 0.065 OD450 nm and the OD450 nm [11] was 0.171 OD450 nm.
